# From patent EP4676952A2 (dated 2026)
# T1: C2b fragment of human C2 (human, UniProt P06681 21-243)
# T1 construct: domain: C2b; also called smaller fragment C2b
# T1 sequence (looked up): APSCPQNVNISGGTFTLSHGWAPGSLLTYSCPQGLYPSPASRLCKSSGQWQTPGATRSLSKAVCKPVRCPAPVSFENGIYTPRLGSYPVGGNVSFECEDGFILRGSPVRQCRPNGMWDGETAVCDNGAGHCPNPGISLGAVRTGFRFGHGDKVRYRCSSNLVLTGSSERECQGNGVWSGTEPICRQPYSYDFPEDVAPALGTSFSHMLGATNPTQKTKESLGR
# T2: human complement component 2 (C2), purified protein (human, UniProt P06681 21-752)
# T2 sequence (looked up): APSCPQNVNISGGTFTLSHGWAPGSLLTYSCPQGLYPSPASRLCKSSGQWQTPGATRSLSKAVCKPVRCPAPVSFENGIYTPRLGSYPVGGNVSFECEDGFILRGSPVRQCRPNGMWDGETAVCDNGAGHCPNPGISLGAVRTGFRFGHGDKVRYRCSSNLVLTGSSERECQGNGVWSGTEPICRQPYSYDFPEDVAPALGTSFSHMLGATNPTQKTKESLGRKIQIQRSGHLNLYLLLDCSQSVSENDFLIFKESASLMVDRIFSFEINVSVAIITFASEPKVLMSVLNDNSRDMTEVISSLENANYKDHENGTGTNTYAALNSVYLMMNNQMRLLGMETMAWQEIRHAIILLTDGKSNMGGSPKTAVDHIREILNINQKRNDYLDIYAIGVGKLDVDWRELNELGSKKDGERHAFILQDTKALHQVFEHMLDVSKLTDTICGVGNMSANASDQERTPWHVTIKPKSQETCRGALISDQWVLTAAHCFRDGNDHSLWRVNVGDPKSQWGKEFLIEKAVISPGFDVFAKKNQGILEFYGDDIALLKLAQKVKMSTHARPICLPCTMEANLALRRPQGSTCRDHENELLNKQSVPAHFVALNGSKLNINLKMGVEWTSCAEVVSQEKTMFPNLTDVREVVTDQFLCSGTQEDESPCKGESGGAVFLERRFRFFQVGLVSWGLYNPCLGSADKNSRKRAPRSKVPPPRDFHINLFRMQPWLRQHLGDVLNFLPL
# T3: human C2b (small fragment of C2) (human, UniProt P06681)
# T3 chain: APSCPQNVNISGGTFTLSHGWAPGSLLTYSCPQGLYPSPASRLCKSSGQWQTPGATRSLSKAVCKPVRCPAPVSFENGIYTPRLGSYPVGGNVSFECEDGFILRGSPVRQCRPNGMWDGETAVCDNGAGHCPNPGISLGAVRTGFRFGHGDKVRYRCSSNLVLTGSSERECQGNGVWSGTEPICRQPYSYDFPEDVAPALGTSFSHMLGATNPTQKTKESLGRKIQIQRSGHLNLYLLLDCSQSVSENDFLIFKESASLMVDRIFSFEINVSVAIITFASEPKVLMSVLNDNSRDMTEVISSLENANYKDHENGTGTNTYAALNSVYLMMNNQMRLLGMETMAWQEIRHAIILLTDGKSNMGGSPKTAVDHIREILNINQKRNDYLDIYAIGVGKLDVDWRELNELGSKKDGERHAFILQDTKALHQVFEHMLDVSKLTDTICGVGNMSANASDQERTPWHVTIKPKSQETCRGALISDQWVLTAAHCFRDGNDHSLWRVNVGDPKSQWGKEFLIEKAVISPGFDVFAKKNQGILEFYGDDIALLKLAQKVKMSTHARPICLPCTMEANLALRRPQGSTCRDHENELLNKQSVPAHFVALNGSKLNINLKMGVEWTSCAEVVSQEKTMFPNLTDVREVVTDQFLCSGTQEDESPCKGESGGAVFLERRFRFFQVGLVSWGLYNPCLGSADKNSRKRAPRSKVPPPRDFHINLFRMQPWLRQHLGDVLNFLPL
# Experiments:
# C2b fragment of human C2 = molecular target: T1, C2b fragment of human C2; test: pull-down of C1s-cleaved C2 with His-tagged nanobody on cobalt resin, western blot with goat anti-C2 polyclonal antibody
# [1] = molecular target: T2, human complement component 2 (C2), …; test: cell-based or functional assay
# [2] = molecular target: T3, human C2b (small fragment of C2); test: ELISA
# [3] = molecular target: T2, human complement component 2 (C2), …; test: SPR, Biacore T200, nanobody immobilised on a CM5 chip, human C2 2.97 to 248 nM as analyte, 1:1 Langmuir model
binder,measurement,setting,value
"Clone 1B10 C2 nanobody (Nab1B10), monovalent, His-tagged (VHH, Alpaca VHH expressed in E. coli BL21 from the pMES4 vector; single 15 kDa band on SDS-PAGE; also called NablBlO; Nabl BIO; not shown: His tag (monovalent form is 'His-tagged', purified on cobalt resin)) VHH: QVQLQESGGGLVQAGGSLRLSCAASGHTFRSYYMGWFRQAPGKEREFVASISWTGGSTEYADSVKGRFTISRDNAKNTVYLQMNSLKPEDTAAYYCAADYSGDFLLSDLDSWGQGTQVTVSS",binding result,C2b fragment of human C2,no binding
same,"MicroVue CH50 Eq EIA (C5b-9 generation, classical pathway, normal human serum), EC50",[1],53 nM
same,"classical complement pathway-mediated hemolytic assay (EShA, normal human serum), IC50",[1],~3 nM
same,binding result,[2],no binding
same,Kd,[3],3.03 nM
same,koff,[3],0.000395 s⁻¹
same,kon,[3],131000 M⁻¹ s⁻¹
